According to article PMC4737164, “DNA recognition for virus assembly through multiple sequence-independent interactions with a helix-turn-helix motif”:

Legend:
[1] = target: T1, SF6 small terminase (GP1) DBD wild type (Bacillus phage SF6, UniProt P68928 1-68); assay: SPR; McGhee-von Hippel, site size 3 bp; not saturated; 20 mM HEPES, 150 mM KCl (300 mM in second ReDCaT), pH 7.0, +0.05% Tween 20 for SPR; ReDCaT 20 uM protein; AUC 20 C; NMR 20 mM MES, 150 mM KCl, pH 6.0, 25 C; settings: protein: recombinant, tags: C-terminal 3C site-His tag, cleaved, label: 5'-biotin strand 1 (SPR), blunt
T1 sequence: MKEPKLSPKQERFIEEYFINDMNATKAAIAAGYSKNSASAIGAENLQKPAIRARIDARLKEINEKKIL

[2] = target: T2, SF6 small terminase DBD K48A (Bacillus phage SF6, UniProt P68928 1-68, K48A); assay: SPR; up to 1500 uM protein; 20 mM HEPES, 150 mM KCl (300 mM in second ReDCaT), pH 7.0, +0.05% Tween 20 for SPR; ReDCaT 20 uM protein; AUC 20 C; NMR 20 mM MES, 150 mM KCl, pH 6.0, 25 C; settings: protein: recombinant; tags: C-terminal 3C site-His tag, cleaved; label: 5'-biotin strand 1 (SPR); none in NMR; blunt
T2 sequence: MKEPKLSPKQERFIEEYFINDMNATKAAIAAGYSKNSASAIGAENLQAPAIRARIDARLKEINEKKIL

[3] = target: T3, SF6 small terminase DBD K26A (Bacillus phage SF6, UniProt P68928 1-68, K26A); assay: SPR; McGhee-von Hippel, site size 3 bp; 20 mM HEPES, 150 mM KCl (300 mM in second ReDCaT), pH 7.0, +0.05% Tween 20 for SPR; ReDCaT 20 uM protein; AUC 20 C; NMR 20 mM MES, 150 mM KCl, pH 6.0, 25 C; settings: protein: recombinant; tags: C-terminal 3C site-His tag, cleaved; label: 5'-biotin strand 1 (SPR); none in NMR; blunt
T3 sequence: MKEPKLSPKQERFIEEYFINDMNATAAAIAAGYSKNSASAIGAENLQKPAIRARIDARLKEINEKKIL

[4] = target: T1, SF6 small terminase (GP1) DBD wild type; assay: AUC; 1:1; Kd stated in mM range; 20 mM HEPES, 150 mM KCl (300 mM in second ReDCaT), pH 7.0, +0.05% Tween 20 for SPR; ReDCaT 20 uM protein; AUC 20 C; NMR 20 mM MES, 150 mM KCl, pH 6.0, 25 C; settings: protein: recombinant; tags: C-terminal 3C site-His tag, cleaved; label: 5'-6-FAM in AUC; hairpin, 5 bp, 1 nt 5' overhang
[5] = target: T1, SF6 small terminase (GP1) DBD wild type; assay: AUC; 2-3 proteins per DNA, saturated; 20 mM HEPES, 150 mM KCl (300 mM in second ReDCaT), pH 7.0, +0.05% Tween 20 for SPR; ReDCaT 20 uM protein; AUC 20 C; NMR 20 mM MES, 150 mM KCl, pH 6.0, 25 C; settings: protein: recombinant; tags: C-terminal 3C site-His tag, cleaved; label: 3'-ATTO 647N strand 1; blunt
[6] = target: T1, SF6 small terminase (GP1) DBD wild type; assay: AUC; 1.5 mM protein; 1:1; Kd stated in mM range; 20 mM HEPES, 150 mM KCl (300 mM in second ReDCaT), pH 7.0, +0.05% Tween 20 for SPR; ReDCaT 20 uM protein; AUC 20 C; NMR 20 mM MES, 150 mM KCl, pH 6.0, 25 C; settings: protein: recombinant; tags: C-terminal 3C site-His tag, cleaved; label: 3'-ATTO 647N in AUC; hairpin, 5 bp, TTTT loop
[7] = target: T1, SF6 small terminase (GP1) DBD wild type; assay: SPR; 300 mM KCl; increased, approaching F5; 20 mM HEPES, 150 mM KCl (300 mM in second ReDCaT), pH 7.0, +0.05% Tween 20 for SPR; ReDCaT 20 uM protein; AUC 20 C; NMR 20 mM MES, 150 mM KCl, pH 6.0, 25 C; settings: protein: recombinant; tags: C-terminal 3C site-His tag, cleaved; label: 5'-biotin strand 3; nicked
[8] = target: T1, SF6 small terminase (GP1) DBD wild type; assay: AUC; 1 mM protein; 5 proteins per DNA, not saturated; 20 mM HEPES, 150 mM KCl (300 mM in second ReDCaT), pH 7.0, +0.05% Tween 20 for SPR; ReDCaT 20 uM protein; AUC 20 C; NMR 20 mM MES, 150 mM KCl, pH 6.0, 25 C; settings: protein: recombinant; tags: C-terminal 3C site-His tag, cleaved; label: 5'-TAMRA strand 1; blunt
[9] = target: T1, SF6 small terminase (GP1) DBD wild type; assay: SPR; 300 mM KCl; above-average density; 20 mM HEPES, 150 mM KCl (300 mM in second ReDCaT), pH 7.0, +0.05% Tween 20 for SPR; ReDCaT 20 uM protein; AUC 20 C; NMR 20 mM MES, 150 mM KCl, pH 6.0, 25 C; settings: protein: recombinant; tags: C-terminal 3C site-His tag, cleaved; label: 5'-biotin strand 3; nicked 50 bp
[10] = target: T1, SF6 small terminase (GP1) DBD wild type; assay: SPR; 150 mM KCl; superstoichiometric, low affinity; 20 mM HEPES, 150 mM KCl (300 mM in second ReDCaT), pH 7.0, +0.05% Tween 20 for SPR; ReDCaT 20 uM protein; AUC 20 C; NMR 20 mM MES, 150 mM KCl, pH 6.0, 25 C; settings: protein: recombinant; tags: C-terminal 3C site-His tag, cleaved; label: 5'-biotin strand 3; nicked 50 bp
[11] = target: T1, SF6 small terminase (GP1) DBD wild type; assay: SPR; 300 mM KCl; not significantly changed vs P6/F3; 20 mM HEPES, 150 mM KCl (300 mM in second ReDCaT), pH 7.0, +0.05% Tween 20 for SPR; ReDCaT 20 uM protein; AUC 20 C; NMR 20 mM MES, 150 mM KCl, pH 6.0, 25 C; settings: protein: recombinant; tags: C-terminal 3C site-His tag, cleaved; label: 5'-biotin strand 3; nicked 50 bp

B1: 30-bp linker dsDNA (dsDNA)
DNA 1: GAGACCTGGAACGCGATCATTGGCAGCACG
DNA 2: CGTGCTGCCAATGATCGCGTTCCAGGTCTC
Kd [1]: 1.85 ± 0.02 mM

B2: 20-bp linker dsDNA (dsDNA)
DNA 1: GCAGGAGGACGTAGGGTAGG
DNA 2: CCTACCCTACGTCCTCCTGC
binding result [2]: no binding | Kd [3]: 3.08 ± 0.03 mM | Kd ([1]; none in NMR): 0.92 ± 0.01 mM

B3: 18C-hairpin (structured_DNA)
DNA 1: AGTAGG
DNA 2: CCTAC
modifications: 18C spacer joins 3' end of strand 1 to 5' end of strand 2
binding result [4]: binds

B4: 11-bp DNA (dsDNA)
DNA 1: GCCTACCCTAC
DNA 2: GTAGGGTAGGC
binding result [5]: binds

GTAGGTTTTCCTAC (structured_DNA) [14-nt hairpin]
binding result [6]: binds

B5: P8_F5 (dsDNA)
DNA 1: TTTCTATGGGAGAAGTAAACCTAAACTATCTCCAAA
DNA 2: TTTGGAGATAGTTTAGGTTTACTTCTCCCATAGAAACCTACCCTACGTCCTCCTGC
DNA 3: GCAGGAGGACGTAGGGTAGG
binding result [7]: binds

B6: 30-bp AUC DNA (dsDNA)
DNA 1: ATAGAAAAAACCTCCTTAAAACTATATTTG
DNA 2: CAAATATAGTTTTAAGGAGGTTTTTTCTAT
binding result [8]: binds

B7: F5 (S5) (dsDNA)
DNA 1: TTTTATGAAAGAACCTAAACTATCTCCAAA
DNA 2: TTTGGAGATAGTTTAGGTTCTTTCATAAAACCTACCCTACGTCCTCCTGC
DNA 3: GCAGGAGGACGTAGGGTAGG
binding result [9]: binds

B8: F10 (S10) (dsDNA)
DNA 1: TTGGGGCAGAAAACTTACAGAAACCAGCTA
DNA 2: TAGCTGGTTTCTGTAAGTTTTCTGCCCCAACCTACCCTACGTCCTCCTGC
DNA 3: GCAGGAGGACGTAGGGTAGG
binding result [9]: binds

B9: P6 (boxA) (dsDNA)
DNA 1: ATTAGGTTTATATAAGGTTTTATCATTCAG
DNA 2: CTGAATGATAAAACCTTATATAAACCTAATCCTACCCTACGTCCTCCTGC
DNA 3: GCAGGAGGACGTAGGGTAGG
binding result [10]: binds

B10: P6_F3 (dsDNA)
DNA 1: ATTAGGTTTATATAAGGTTTTATACATCAG
DNA 2: CTGATGTATAAAACCTTATATAAACCTAATCCTACCCTACGTCCTCCTGC
DNA 3: GCAGGAGGACGTAGGGTAGG
binding result [11]: binds

B11: F3 (S3) (dsDNA)
DNA 1: ATTAGGTTTATATAAGGTTTTAATTAGGTT
DNA 2: AACCTAATTAAAACCTTATATAAACCTAATCCTACCCTACGTCCTCCTGC
DNA 3: GCAGGAGGACGTAGGGTAGG
binding result [9]: binds
